Publication doi:10.1101/2021.10.29.466484, “Clamping of DNA shuts the condensin neck gate” (bioRxiv, 2021)

B2: Ycs4 (natural protein, S. cerevisiae)
chain: MSGFSLSEYLTKFQTTDRESYPRLQDPSRELNVIIDQLAVSPEQIDASPDSLEALIDLCHDFPHLTPKLQTQLSYLISSSLSNLSKDIKANLSSNVNFTEIGGLIPQWKRHLEEYGYLIQVLLTFLQDELHKVSSQSTNLNRSAKNSKNDSANVELFKRDCNQMENLLESITKLLEINLSKIFQTTPEKDLFIGLFTRPLFVLLEIEPVTKVSSLKMFIQRILAMCVKNHGQSSSIQSSLMTNLTYFLHLSVFNAELLKLLNDEYNYPQLTEDILKEISTRVFNAKDTTGPKAISNFLIKLSELSPGIMLRQMNLVITLLNNSSITLRCSVVEACGNIVAELAQDPQTMEHYKQQIAVLIELLEERFQDSNPYVRTKAIQGCSKICDLSSKFNKSKAKFTSLAVRSLQDRSSLVRRNSVKLLSKLLLKHPFKAIHGSQLRLSEWEEYLKGSESQLNSTLKKVESQETLNDTIERSLIEEEVEQDEGQCRTELEGSFNKSAELSRIENEVENINATNTSVLMKLKLMIVYYKDAISFIKEIHKSIELISNLLFSKNRNEVLESMDFLVLADAFDIELSEFGIKKMLHLVWMKGTNDEGTSISVHLIECYKQLFLTAPDSCNMQEKAAHIAKNLINLSIGASIADLASLEQLLGMMYEQKLIDQHVINILWAIYNSASKASMQKEQNVNNRDSEKGFSKEQIHGSIIILGMLSLADNEIALKGLESLLNIGLGAVGLKDLTLCRYSCLALERMVPKRSTIITKAINQELEDVAVKKLYAIIINYTKDNEYYPMCEQALSALFTISSKPDILATDLIREKTMMTFGKPEEEDSILSLEQSSRVVSLSQLLFIVGQVAIKTLVYLEKCEAEFKKRKIEAETRNGKVKNQGADVTNTTQDNGGDKELEMIGGTNEDDFTDAIQFVKENELLFGEKSILGKFCPIVEEIVSNSSRFSDPMLQRTATLCLEKLMCLSSKYCEKSLPLLITVMEKSPDPTIRSNAVLGLGDMAVCFNNLVDENTDYLYRRLHDENLMVQRTCLMTVTFLILAGQVKVKGQLGEMAKCLDNPDQGISDMCRLFFTELASKDNAIYNGFIDIFSNLSSDDLLGKESFKKIIKFLLTFIDKERHQKQLNEKLVGRLRKCETQKQWDDIAFVLNNLPYKNEDVTALLEQGFKVVSAKE
notes: Ycs4, HAWK subunit of budding yeast (S. cerevisiae) condensin, wild type

Tests used:
Conditions in all cases: both partners purified
Ycs4 = target: B2; experiment: cryo-EM structure; condensin pentamer (Smc2, Smc4, Brn1, Ycs4, Ycg1) with 80 bp dsDNA, ADP and BeF3; separate maps of the head module and of Ycg1-DNA from one dataset
Smc4 [1] = target: T1, Smc4 (S. cerevisiae, UniProt Q12267 1-1418); experiment: cryo-EM structure; condensin tetramer (Smc2, Smc4, Brn1, Ycs4) with 80 bp dsDNA, 5 mM ADP, 1 mM BeSO4, 10 mM NaF; TNT buffer (30 mM Tris/HCl, 60 mM NaCl, 1 mM TCEP, 2 mM MgCl2, pH 7.5); head module, Forms I and II
T1 construct: Smc4, SMC subunit of budding yeast (S. cerevisiae) condensin, wild type; Only the head domain and proximal coiled coil are resolved in the maps; also called SMC4-3xStrepII
T1 sequence: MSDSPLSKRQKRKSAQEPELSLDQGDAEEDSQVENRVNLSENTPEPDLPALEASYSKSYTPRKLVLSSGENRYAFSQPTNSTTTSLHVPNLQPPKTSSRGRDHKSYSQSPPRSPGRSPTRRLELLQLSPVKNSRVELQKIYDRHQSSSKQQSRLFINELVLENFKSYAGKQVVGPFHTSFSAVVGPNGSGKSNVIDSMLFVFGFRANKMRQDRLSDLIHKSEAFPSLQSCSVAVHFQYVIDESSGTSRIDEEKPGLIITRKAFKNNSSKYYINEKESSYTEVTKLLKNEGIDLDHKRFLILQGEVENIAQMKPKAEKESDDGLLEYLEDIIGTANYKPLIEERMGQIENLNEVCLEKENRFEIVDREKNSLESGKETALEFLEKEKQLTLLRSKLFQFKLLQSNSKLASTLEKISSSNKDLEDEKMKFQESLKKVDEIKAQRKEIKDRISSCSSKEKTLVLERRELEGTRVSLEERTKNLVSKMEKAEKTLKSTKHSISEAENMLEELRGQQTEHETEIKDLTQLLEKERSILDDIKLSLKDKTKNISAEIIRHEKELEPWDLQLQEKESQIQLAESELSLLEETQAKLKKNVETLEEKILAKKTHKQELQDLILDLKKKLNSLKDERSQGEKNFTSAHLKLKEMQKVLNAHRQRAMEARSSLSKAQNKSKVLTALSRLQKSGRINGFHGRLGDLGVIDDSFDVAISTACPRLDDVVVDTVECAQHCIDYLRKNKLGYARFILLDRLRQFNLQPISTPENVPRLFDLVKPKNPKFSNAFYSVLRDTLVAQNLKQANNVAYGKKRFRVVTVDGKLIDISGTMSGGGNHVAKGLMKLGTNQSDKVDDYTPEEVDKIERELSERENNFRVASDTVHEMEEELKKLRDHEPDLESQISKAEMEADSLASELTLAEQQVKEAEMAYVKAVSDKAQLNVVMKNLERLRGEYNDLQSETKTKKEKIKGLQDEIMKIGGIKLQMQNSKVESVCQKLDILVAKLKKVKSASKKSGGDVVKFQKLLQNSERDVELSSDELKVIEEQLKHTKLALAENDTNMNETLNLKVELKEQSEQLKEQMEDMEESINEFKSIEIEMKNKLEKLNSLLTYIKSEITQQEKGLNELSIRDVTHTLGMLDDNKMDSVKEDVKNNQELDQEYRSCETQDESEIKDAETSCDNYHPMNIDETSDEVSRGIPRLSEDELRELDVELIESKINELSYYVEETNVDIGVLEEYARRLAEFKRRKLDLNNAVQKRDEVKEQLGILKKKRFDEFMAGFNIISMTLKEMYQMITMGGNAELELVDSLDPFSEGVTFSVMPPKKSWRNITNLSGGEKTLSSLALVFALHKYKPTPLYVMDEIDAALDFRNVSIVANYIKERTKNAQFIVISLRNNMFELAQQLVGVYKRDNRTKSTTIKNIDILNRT

Smc4 [2] = target: T1, Smc4; experiment: cryo-EM structure; condensin pentamer (Smc2, Smc4, Brn1, Ycs4, Ycg1) with 80 bp dsDNA, ADP and BeF3; separate maps of the head module and of Ycg1-DNA from one dataset

B1: Smc2 (natural protein, S. cerevisiae)
chain: MKVEELIIDGFKSYATRTVITDWDPQFNAITGLNGSGKSNILDAICFVLGIASMSTVRASSLQDLIYKRGQAGVTKASVTIVFDNTDKSNSPIGFTNSPQISVTRQVVLGGTSKYLINGHRAPQQSVLQLFQSVQLNINNPNFLIMQGKITKVLNMKPSEILSLIEEAAGTKMFEDRREKAERTMSKKETKLQENRTLLTEEIEPKLEKLRNEKRMFLEFQSTQTDLEKTERIVVSYEYYNIKHKHTSIRETLENGETRMKMLNEFVKKTSEEIDSLNEDVEEIKLQKEKELHKEGTISKLENKENGLLNEISRLKTSLSIKVENLNDTTEKSKALESEIASSSAKLIEKKSAYANTEKDYKMVQEQLSKQRDLYKRKEELVSTLTTGISSTGAADGGYNAQLAKAKTELNEVSLAIKKSSMKMELLKKELLTIEPKLKEATKDNELNVKHVKQCQETCDKLRARLVEYGFDPSRIKDLKQREDKLKSHYYQTCKNSEYLKRRVTNLEFNYTKPYPNFEASFVHGVVGQLFQIDNDNIRYATALQTCAGGRLFNVVVQDSQTATQLLERGRLRKRVTIIPLDKIYTRPISSQVLDLAKKIAPGKVELAINLIRFDESITKAMEFIFGNSLICEDPETAKKITFHPKIRARSITLQGDVYDPEGTLSGGSRNTSESLLVDIQKYNQIQKQIETIQADLNHVTEELQTQYATSQKTKTIQSDLNLSLHKLDLAKRNLDANPSSQIIARNEEILRDIGECENEIKTKQMSLKKCQEEVSTIEKDMKEYDSDKGSKLNELKKELKLLAKELEEQESESERKYDLFQNLELETEQLSSELDSNKTLLHNHLKSIESLKLENSDLEGKIRGVEDDLVTVQTELNEEKKRLMDIDDELNELETLIKKKQDEKKSSELELQKLVHDLNKYKSNTNNMEKIIEDLRQKHEFLEDFDLVRNIVKQNEGIDLDTYRERSKQLNEKFQELRKKVNPNIMNMIENVEKKEAALKTMIKTIEKDKMKIQETISKLNEYKRETLVKTWEKVTLDFGNIFADLLPNSFAKLVPCEGKDVTQGLEVKVKLGNIWKESLIELSGGQRSLIALSLIMALLQFRPAPMYILDEVDAALDLSHTQNIGHLIKTRFKGSQFIVVSLKEGMFANANRVFRTRFQDGTSVVSIM
notes: Smc2, SMC subunit of budding yeast (S. cerevisiae) condensin, wild type; Expressed from pGAL10-SMC2 together with the other subunits; Only the head domain and proximal coiled coil are resolved in the maps
Does B1 bind (Ycs4)?
Result: binds

Does B1 bind (Smc4 [1])?
Result: binds

Does B2 bind (Smc4 [2])?
Result: binds
